Data published in patent publication US6008320A, “Elastase inhibitor and process for preparing the same” (Korea Advanced Institute of Science and Technology, priority 1995, dated 1999).
Entries after “also recorded” stand apart in the source; their conditions may differ.

Assays:
[1] = target: chymotrypsin (Bos taurus, UniProt P00766); test: Specificity of inhibiting activity: chymotrypsin; format: biochemical
Description: (§1) The specific activities of Guamerin on the other types of proteases beside elastase, were studied; and, it was determined that: while it has no effect on papain, pepsin, thrombin, and factor Xa, Guamerin had about 15% of inhibiting-activity against trypsin, chymotrypsin, and subtilisin. […] In FIG. 4, HL-elastase and PP-elastase represent the ones isolated from human leukocyte and porcine pancreas, respectively.

[2] = target: T1, trypsin (Bos taurus, UniProt P00760); test: Specificity of inhibiting activity: trypsin; format: biochemical
T1 construct: gene PRSS1
T1 sequence (P00760 24-246): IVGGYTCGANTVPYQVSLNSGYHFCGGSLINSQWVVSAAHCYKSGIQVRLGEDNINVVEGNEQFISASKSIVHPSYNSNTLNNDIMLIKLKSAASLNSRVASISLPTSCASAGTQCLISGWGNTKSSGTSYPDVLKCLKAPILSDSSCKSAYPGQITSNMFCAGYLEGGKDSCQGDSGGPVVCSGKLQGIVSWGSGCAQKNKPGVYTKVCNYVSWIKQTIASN
Description: as §1

[3] = tested on: elastase; test: Elastase-inhibiting activity assay (decrease in ρ-nitroaniline degrading activity of elastase); format: biochemical; details: 1 U = amount of inhibitor that decreases the degradation of 1 μM ρ-nitroaniline by elastase per minute; 37° C., 50 min
Description: The activity of the purified Guamerin was assayed as follows: 50 μl of elastase-containing solution(0.37 mg/ml) and 500 μl of 1 mM .rho.-nitroaniline were mixed together, and 50 μl of each of fractions obtained in the course of purification was added to the mixture, and left to react at 37° C. for 50 min. The absorbance(O.D.) at 440 nm calculated in terms of the hydrolysed .rho.-nitroaniline, was measured. O.D. values of the control and the active fractions were compared, and the activity of Guamerin was determined, based on the decrease in .rho.-nitroaniline degradating activity of elastase.
Protein was quantitatively assayed by Bradford method(see: Bradford, M. M., Anal. Biochem., 72: 248-254(1976)). In this regard, one unit(1 U) was defined as the amount of inhibitor that decreases the degradation of 1 μM .rho.-nitroaniline by elastase per minute.

[4] = target: factor Xa (Homo sapiens, UniProt P00742); test: Specificity of inhibiting activity: factor Xa; format: biochemical
Chain of factor Xa (P00742 235-488 limits assumed): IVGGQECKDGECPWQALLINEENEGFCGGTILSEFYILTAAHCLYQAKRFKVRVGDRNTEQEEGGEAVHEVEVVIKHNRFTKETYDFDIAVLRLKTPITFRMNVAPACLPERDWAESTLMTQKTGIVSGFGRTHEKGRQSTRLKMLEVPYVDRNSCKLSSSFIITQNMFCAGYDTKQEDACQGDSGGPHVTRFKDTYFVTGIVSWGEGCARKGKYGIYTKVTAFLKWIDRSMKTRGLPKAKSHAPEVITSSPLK
Description: as §1

[5] = target: thrombin (Homo sapiens, UniProt P00734); test: Specificity of inhibiting activity: thrombin; format: biochemical
Description: as §1

[6] = target: T2, elastase (Homo sapiens, UniProt P08246); test: Determination of inhibition constant and inhibition mechanism; format: biochemical; details: FIG. 5
T2 sequence (P08246 30-247 limits assumed): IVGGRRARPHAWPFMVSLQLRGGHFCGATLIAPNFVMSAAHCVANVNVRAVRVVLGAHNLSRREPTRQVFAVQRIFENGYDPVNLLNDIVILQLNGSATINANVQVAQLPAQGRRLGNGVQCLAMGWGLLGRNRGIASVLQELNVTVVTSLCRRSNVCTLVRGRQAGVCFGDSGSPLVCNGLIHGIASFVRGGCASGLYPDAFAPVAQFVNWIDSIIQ

[7] = target: T3, papain (Carica papaya, UniProt P00784); test: Specificity of inhibiting activity: papain; format: biochemical
T3 sequence (P00784 134-345): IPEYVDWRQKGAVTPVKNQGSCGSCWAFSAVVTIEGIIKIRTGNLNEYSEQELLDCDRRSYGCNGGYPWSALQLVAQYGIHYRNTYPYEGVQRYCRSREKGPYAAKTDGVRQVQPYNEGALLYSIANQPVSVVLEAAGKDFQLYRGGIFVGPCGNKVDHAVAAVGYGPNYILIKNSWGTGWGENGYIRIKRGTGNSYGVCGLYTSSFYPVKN
Description: as §1

[8] = target: pepsin (Homo sapiens, UniProt P0DJD8); test: Specificity of inhibiting activity: pepsin; format: biochemical
Chain of pepsin (P0DJD8 63-388): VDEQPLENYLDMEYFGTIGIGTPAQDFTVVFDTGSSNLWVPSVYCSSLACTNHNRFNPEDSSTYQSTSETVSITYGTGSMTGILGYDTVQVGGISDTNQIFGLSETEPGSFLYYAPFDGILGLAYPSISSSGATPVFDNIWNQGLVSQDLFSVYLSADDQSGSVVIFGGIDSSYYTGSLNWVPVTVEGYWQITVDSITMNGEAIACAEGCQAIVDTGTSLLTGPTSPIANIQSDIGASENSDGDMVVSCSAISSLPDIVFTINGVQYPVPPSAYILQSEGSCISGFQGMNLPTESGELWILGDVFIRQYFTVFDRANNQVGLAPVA
Description: as §1

[9] = Heat stability of Guamerin activity; format: physicochemical; details: 40° C. to 100° C. at an interval of 10° C., 15 min
Description: To investigate the effect of heat on the activity of Guamerin, it was subjected to heating condition at an interval of 10° C. ranging from 40° C. to 100° C. for 15 min(see: FIG. 6).

[10] = tested on: elastase; test: Specificity of inhibiting activity: elastase; format: biochemical; details: FIG. 4: HL-elastase (human leukocyte) and PP-elastase (porcine pancreas)
Description: as §1

[11] = tested on: subtilisin; test: Specificity of inhibiting activity: subtilisin; format: biochemical
Description: as §1

[12] = target: T4, elastase (Homo sapiens, UniProt P08246); details: other elastase-inhibiting proteins in the prior art; read-out: inhibition constant; cited from earlier work
T4 sequence (P08246 30-267): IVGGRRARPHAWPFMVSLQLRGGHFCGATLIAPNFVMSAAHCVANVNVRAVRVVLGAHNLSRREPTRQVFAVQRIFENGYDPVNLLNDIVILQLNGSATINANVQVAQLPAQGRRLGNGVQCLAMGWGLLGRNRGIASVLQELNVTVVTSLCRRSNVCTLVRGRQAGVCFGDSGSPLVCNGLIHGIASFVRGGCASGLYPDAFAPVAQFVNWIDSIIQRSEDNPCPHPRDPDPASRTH

Substance: Guamerin: novel elastase-inhibiting protein isolated from a Korean leech, Guameri (Hirudo nipponia); 57 amino acids, 6,110 Da (VDENAEDTHGLCGEKTCSPAQVCLNNECACTAIRCMIFCPNGFKVDENGCEYPCTCA)
- inhibiting-activity against chymotrypsin [1]: about 15%
- inhibiting-activity against trypsin [2]: about 15%
- Specific activity [3]: 361 units/mg
- effect on factor Xa [4]: no effect
- effect on thrombin [5]: no effect
- mechanism of elastase inhibition [6]: competitive inhibition
- effect on papain [7]: no effect
- effect on pepsin [8]: no effect
- change in activity after heating [9]: quite stable; also recorded: no change
- inhibiting activity on elastase [10]: about 90%
- inhibiting-activity against subtilisin [11]: about 15%

Substance: elafin: elastase-inhibiting protein in the prior art, printed as isolated from european leeches (AQEPVKGPVSTKPGSCPIILIRCAMLNPPNRCLKDTDCPGIKKCCEGSCGMACFVPQ; UniProt P19957 61-117, looked up)
- Ki [12]: 0.6 nM
